What was measured:
[1] = molecular target: T1, leucyl oligopeptide of SEQ ID NO: 2
T1 chain: LFPTEPS

[2] = molecular target: T2, methionyl oligopeptide of SEQ ID NO: 1 (Met-Phe-Pro-Thr-Glu-Pro-Ser)
T2 chain: MFPTEPS

B1: Aeromonas proteolytica (Vibrio proteolytica) aminopeptidase (protein)
chain: MPPITQQATVTAWLPQVDASQITGTISSLESFTNRFYTTTSGAQASDWIASEWQALSASLPNASVKQVSHSGYNQKSVVMTITGSEAPDEWIVIGGHLDSTIGSHTNEQSVAPGADDDASGIAAVTEVIRVLSENNFQPKRSIAFMAYAAEEVGLRGSQDLANQYKSEGKNVVSALQLDMTNYKGSAQDVVFITDYTDSNFTQYLTQLMDEYLPSLTYGFDTCGYACSDHASWHNAGYPAAMPFESKFNDYNPRIHTTQDTLANSDPTGSHAKKFTQLGLAYAIEMGSATGDTPTPGNQ
With B1 the Kcat/Km [1] was 211000 M⁻¹ s⁻¹, the Km [1] was 336 µM and the kcat [1] was 70.3 s⁻¹. The Kcat/Km [2] was 3760 M⁻¹ s⁻¹, the Km [2] was 956 µM and the kcat [2] was 3.23 s⁻¹.

Source: patent US6428997
